Experimental data reported in patent US20180295858.

Target: T1, H-AAPPA-NH2
T1 chain: AAPPA

B1: proline tolerant tripeptidyl peptidase TRI083 (protein)
chain: QEPSSCKGTLVFEGETFNVFQPDCLRTEYSVDGYTPSVKSGSRIGFGSFLNESASFADQALFEKHFNIPSQNFSVVLINGGTDLPQPPSDANDGEANLDAQTILTIAHPLPITEFITAGSPPYFPDPVEPAGTPNENEPYLQYYEFLLSKSNAEIPQVITNSYGDEEQTVPRSYAVRVCNLIGLLGLRGISVLHSSGDEGVGASCVATNSTTPQFNPIFPATCPYVTSVGGTVSFNPEVAWAGSSGGFSYYFSRPWYQQEAVGTYLEKYVSAETKKYYGPYVDFSGRGFPDVAAHSVSPDYPVFQGGELTPSGGTSAASPVVAAIVALLNDARLREGKPTLGFLNPLIYLHASKGFTDITSGQSEGCNGNNTQTGSPLPGAGFIAGAHWNATKGWDPTTGFGVPNLKKLLALVRF
  hydrolysis of synthetic substrate AAPPA, LC-MS with label free quantification: over time is able to degrade the peptide AAPPA (FIG. 5) and generate the product AAP (FIG. 6)
